Ends that are not written are not given here.
Key:
Experiment in all cases: cyclic peptide substitution array
ApoC3 peptide L67T = target: T1, ApoC3 peptide L67T (human, thioether (positions not given here); not fully specified (bridges); also: thioether between a C-terminal Cys side chain and a modified N-terminus, the Cys is not in the chain)
T1 peptide: DKFSEFWDTDPEV
Text: (§1) S62 and D68 of mature huApoC3 were also highly conserved; substitution of S62 by A or V, and substitution of D68 by E or P, caused decrease of spot intensities by ˜60% or higher. […] Amino acid F64 was completely variable.
(§2) Pre: staining of one of the ApoC3 peptide microarrays was done with the secondary antibody goat anti-human IgG (Fe) DyLight680 (1:5000) and control antibody mouse monoclonal anti-HA (12CA5) DyLight800 (1:2000) to investigate background interactions of the secondary antibody with the antigen-derived peptides that could interfere with the main assays. Subsequent incubation of other ApoC3 peptide microarrays with antibody samples was followed by staining with secondary and control antibodies as well as read-out at scanning intensities of 7/7 (red/green). The additional HA peptides framing the peptide arrays were stained as internal quality control to confirm the assay quality and the peptide microarray integrity.

ApoC3 peptide F61R = target: T2, ApoC3 peptide F61R (human, cyclic (thioether))
T2 peptide: DKRSEFWDLDPEV
Text: as §1, §2

ApoC3 peptide E70R = target: T3, ApoC3 peptide E70R (human, cyclic (thioether))
T3 peptide: DKFSEFWDLDPRV
Text: as §1, §2

ApoC3 peptide E63H = target: T4, ApoC3 peptide E63H (human, cyclic (thioether))
T4 peptide: DKFSHFWDLDPEV
Text: as §1, §2

ApoC3 peptide K60A = target: T5, ApoC3 peptide K60A (human, thioether (positions not given here); not fully specified (bridges); also: cyclic (thioether), positions not given here)
T5 peptide: DAFSEFWDLDPEV
Text: as §1, §2

ApoC3 peptide D66E = target: T6, ApoC3 peptide D66E (human, not fully specified; cyclic (thioether))
T6 peptide: DKFSEFWELDPEV
Text: as §1, §2

ApoC3 peptide L67G = target: T7, ApoC3 peptide L67G (human, thioether (positions not given here); not fully specified (bridges); also: thioether between a C-terminal Cys side chain and a modified N-terminus, the Cys is not in the chain)
T7 peptide: DKFSEFWDGDPEV
Text: as §1, §2

ApoC3 peptide P69R = target: T8, ApoC3 peptide P69R (human, not fully specified; cyclic (thioether))
T8 peptide: DKFSEFWDLDREV
Text: as §1, §2

ApoC3 peptide K60V = target: T9, ApoC3 peptide K60V (human, cyclic (thioether))
T9 peptide: DVFSEFWDLDPEV
Text: as §1, §2

ApoC3 peptide D59T = target: T10, ApoC3 peptide D59T (human, thioether (positions not given here); not fully specified (C-terminus, bridges); also: cyclised via thioether between a C-terminal Cys and a modified N-terminus, the Cys and the N-terminal …)
T10 peptide: TKFSEFWDLDPEV
Text: as §1, §2

ApoC3 peptide S62P = target: T11, ApoC3 peptide S62P (human, thioether (positions not given here); also: cyclic (thioether), ring places not given here)
T11 peptide: DKFPEFWDLDPEV
Text: as §1, §2

ApoC3 peptide L67K = target: T12, ApoC3 peptide L67K (human, thioether (positions not given here); not fully specified (bridges); also: thioether between a C-terminal Cys side chain and a modified N-terminus, the Cys is not in the chain)
T12 peptide: DKFSEFWDKDPEV
Text: as §1, §2

ApoC3 peptide F64G = target: T13, ApoC3 peptide F64G (human, thioether (positions not given here); not fully specified (bridges); also: cyclic (thioether), positions not given here)
T13 peptide: DKFSEGWDLDPEV
Text: as §1, §2

ApoC3 peptide S62V = target: T14, ApoC3 peptide S62V (human, thioether (positions not given here); also: cyclic (thioether), ring places not given here)
T14 peptide: DKFVEFWDLDPEV
Text: as §1, §2

ApoC3 peptide D59L = target: T15, ApoC3 peptide D59L (human, thioether (positions not given here); not fully specified (C-terminus, bridges))
T15 peptide: LKFSEFWDLDPEV
Text: as §1, §2

ApoC3 peptide F64E = target: T16, ApoC3 peptide F64E (human, cyclic (thioether))
T16 peptide: DKFSEEWDLDPEV
Text: as §1, §2

ApoC3 peptide K60S = target: T17, ApoC3 peptide K60S (human, cyclic (thioether))
T17 peptide: DSFSEFWDLDPEV
Text: as §1, §2

ApoC3 peptide S62Q = target: T18, ApoC3 peptide S62Q (human, thioether (positions not given here); also: cyclic (thioether), ring places not given here)
T18 peptide: DKFQEFWDLDPEV
Text: as §1, §2

ApoC3 peptide L67Y = target: T19, ApoC3 peptide L67Y (human, thioether (positions not given here); not fully specified (bridges); also: thioether between a C-terminal Cys side chain and a modified N-terminus, the Cys is not in the chain)
T19 peptide: DKFSEFWDYDPEV
Text: as §1, §2

ApoC3 peptide E63V = target: T20, ApoC3 peptide E63V (human, cyclic (thioether))
T20 peptide: DKFSVFWDLDPEV
Text: as §1, §2

ApoC3 peptide D66V = target: T21, ApoC3 peptide D66V (human, not fully specified; cyclic (thioether))
T21 peptide: DKFSEFWVLDPEV
Text: as §1, §2

ApoC3 peptide S62K = target: T22, ApoC3 peptide S62K (human, thioether (positions not given here); also: cyclic (thioether), ring places not given here)
T22 peptide: DKFKEFWDLDPEV
Text: as §1, §2

ApoC3 peptide S62R = target: T23, ApoC3 peptide S62R (human, thioether (positions not given here); also: cyclic (thioether), ring places not given here)
T23 peptide: DKFREFWDLDPEV
Text: as §1, §2

ApoC3 peptide V71S = target: T24, ApoC3 peptide V71S (human, not fully specified; cyclic (thioether))
T24 peptide: DKFSEFWDLDPES
Text: as §1, §2

ApoC3 peptide W65M = target: T25, ApoC3 peptide W65M (human, cyclic (thioether))
T25 peptide: DKFSEFMDLDPEV
Text: as §1, §2

ApoC3 peptide F64C = target: T26, ApoC3 peptide F64C (human, cyclic (thioether))
T26 peptide: DKFSECWDLDPEV
Text: as §1, §2

ApoC3 peptide E70T = target: T27, ApoC3 peptide E70T (human, cyclic (thioether))
T27 peptide: DKFSEFWDLDPTV
Text: as §1, §2

ApoC3 peptide L67H = target: T28, ApoC3 peptide L67H (human, thioether (positions not given here); not fully specified (bridges); also: thioether between a C-terminal Cys side chain and a modified N-terminus, the Cys is not in the chain)
T28 peptide: DKFSEFWDHDPEV
Text: as §1, §2

B1: Llama antibody 5E5 (antibody, V domains shown)
VH: QLQLVESGGGLVQPGGSLRLSCAASGFTFGTYSMRWVRQVPRKALEWVSSISTDGGGTAYRDSVKGRFTISRDNAKNTLYLQMNNLKPEDTAIYYCVIAGYSDWGQGTQVTVSS
VL: ATMLTQSPGSLSVVPGESASISCKTSQGLVHSDGKTYFYWFLQKPGQSPQQLIYQVSNRASGVPDRFTGSGSGTDFTLKISGVKAEDAGVYYCAQGTYYPHTFGSGTRLEIK
notes: detected with goat anti-human IgG (Fc); also called mAb 5E5
% of binding to wild-type peptide (ApoC3 peptide L67T): 168% | % of binding to wild-type peptide (ApoC3 peptide F61R): 2.77% | % of binding to wild-type peptide (ApoC3 peptide E70R): 35.8% | % of binding to wild-type peptide (ApoC3 peptide E63H): 49.9% | % of binding to wild-type peptide (ApoC3 peptide K60A): 143% | % of binding to wild-type peptide (ApoC3 peptide D66E): 2.16% | % of binding to wild-type peptide (ApoC3 peptide L67G): 35.2% | % of binding to wild-type peptide (ApoC3 peptide P69R): 20.1% | % of binding to wild-type peptide (ApoC3 peptide K60V): 101% | % of binding to wild-type peptide (ApoC3 peptide D59T): 94.9% | % of binding to wild-type peptide (ApoC3 peptide S62P): 0% | % of binding to wild-type peptide (ApoC3 peptide L67K): 45.6% | % of binding to wild-type peptide (ApoC3 peptide F64G): 212% | % of binding to wild-type peptide (ApoC3 peptide S62V): 30.5% | % of binding to wild-type peptide (ApoC3 peptide D59L): 33.6% | % of binding to wild-type peptide (ApoC3 peptide F64E): 283% | % of binding to wild-type peptide (ApoC3 peptide K60S): 174% | % of binding to wild-type peptide (ApoC3 peptide S62Q): 1.13% | % of binding to wild-type peptide (ApoC3 peptide L67Y): 0.02% | % of binding to wild-type peptide (ApoC3 peptide E63V): 4.2% | % of binding to wild-type peptide (ApoC3 peptide D66V): 0% | % of binding to wild-type peptide (ApoC3 peptide S62K): 4.05% | % of binding to wild-type peptide (ApoC3 peptide S62R): 1.45% | % of binding to wild-type peptide (ApoC3 peptide V71S): 74.1% | % of binding to wild-type peptide (ApoC3 peptide W65M): 0% | % of binding to wild-type peptide (ApoC3 peptide F64C): 51% | % of binding to wild-type peptide (ApoC3 peptide E70T): 83% | % of binding to wild-type peptide (ApoC3 peptide L67H): 3.58%

— patent US20190241648A1 (STATEN BIOTECHNOLOGY B V, published 2019)
